Reference: the supplement of paper PMC7125110
± gives the standard error. This sample holds only a part of the variants without activity.

B1: glmS ribozyme (parent)
chain: AUAAAAGCGCCAGAACUACAGAAAUGUAGUUGACGAGGAGGAGGUUUAUCGAAUUUUCGGCGGAUGCCUCCAAA

What was measured:
Settings in all cases: with glucosamine-6-phosphate
glucosamine-6-phosphate [1] = variants of: B1; assay: self-cleavage kobs at 40 uM GlcN6P; higher = faster cleavage; RNA array
Outline: (§1)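 Barcoded ribozyme variants on sequenced MiSeq chips were transcribed in situ by E. coli RNA polymerase and followed at 37 °C through a hybridised Cy3 probe. Glucosamine-6-phosphate at 40 μM to 10 mM in HEPES/KCl/Mg(OAc)2 buffer was flowed in, and tiles were imaged over ~14 h. Signals were normalised to baseline and to non-cleaving reference variants, and per-tile medians were fit to one- or two-exponential decays to give kobs. Weighted Michaelis–Menten fits across concentrations gave kcat and KM.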

glucosamine-6-phosphate [2] = variants of: B1; assay: self-cleavage kobs at 640 uM GlcN6P; higher = faster cleavage; RNA array
Outline: as §1

glucosamine-6-phosphate [3] = variants of: B1; assay: self-cleavage kobs at 2500 uM GlcN6P; higher = faster cleavage; RNA array
Outline: as §1

glucosamine-6-phosphate [4] = variants of: B1; assay: self-cleavage kobs at 160 uM GlcN6P; higher = faster cleavage; RNA array
Outline: as §1

glucosamine-6-phosphate [5] = variants of: B1; assay: self-cleavage kobs at 10000 uM GlcN6P; higher = faster cleavage; RNA array
Outline: as §1

Variant	self-cleavage kobs at 40 uM GlcN6P (glucosamine-6-phosphate [1])	self-cleavage kobs at 640 uM GlcN6P (glucosamine-6-phosphate [2])	self-cleavage kobs at 2500 uM GlcN6P (glucosamine-6-phosphate [3])	self-cleavage kobs at 160 uM GlcN6P (glucosamine-6-phosphate [4])	self-cleavage kobs at 10000 uM GlcN6P (glucosamine-6-phosphate [5])
G40U U56G G62C C67G	< 1e-05 s⁻¹	–	–	–	–
G13C G37A C50U G59C	< 1e-05 s⁻¹	< 1e-05 s⁻¹	< 1e-05 s⁻¹	–	–
A6C G29C A36G	< 1e-05 s⁻¹	–	< 1e-05 s⁻¹	< 1e-05 s⁻¹	< 1e-05 s⁻¹
G7U U31A	< 1e-05 s⁻¹	< 1e-05 s⁻¹	< 1e-05 s⁻¹	< 1e-05 s⁻¹	< 1e-05 s⁻¹
A33G C71U	< 1e-05 s⁻¹	–	–	–	< 1e-05 s⁻¹
A53G U54G	0.00114 ± 0.00028 s⁻¹	0.00511 ± 0.0011 s⁻¹	0.00388 ± 0.0012 s⁻¹	0.00165 ± 0.00047 s⁻¹	0.081 ± 0.028 s⁻¹
G32C G44U U56A	< 1e-05 s⁻¹	< 1e-05 s⁻¹	–	–	< 1e-05 s⁻¹
U54G G63A A64U C70U	< 1e-05 s⁻¹	–	–	–	–
G44C U46A G51A	< 1e-05 s⁻¹	–	–	–	–
C8A U49A G51A	< 1e-05 s⁻¹	–	–	–	< 1e-05 s⁻¹
A15U C71U	0.000165 ± 1.3e-05 s⁻¹	0.00103 ± 9e-05 s⁻¹	0.00528 ± 0.00075 s⁻¹	0.00037 ± 4.8e-05 s⁻¹	0.00793 ± 0.0013 s⁻¹
G32C G66U	< 1e-05 s⁻¹	–	–	< 1e-05 s⁻¹	–
G7U C70G C71G	4.02e-05 ± 2e-05 s⁻¹	0.000251 ± 8.1e-05 s⁻¹	–	–	–
C50G G51U	< 1e-05 s⁻¹	–	–	< 1e-05 s⁻¹	–
U45G A64U	< 1e-05 s⁻¹	–	–	< 1e-05 s⁻¹	9.64e-05 ± 1.8e-05 s⁻¹
C16A G43C A48G C67U	< 1e-05 s⁻¹	–	–	–	< 1e-05 s⁻¹
G7A U30G G41C C58G G66A	< 1e-05 s⁻¹	–	–	–	–
G32U G44A	< 1e-05 s⁻¹	–	–	–	–
C10G G37A G66U U69G C71A	< 1e-05 s⁻¹	–	–	< 1e-05 s⁻¹	–
C34A G62A	< 1e-05 s⁻¹	< 1e-05 s⁻¹	< 1e-05 s⁻¹	< 1e-05 s⁻¹	< 1e-05 s⁻¹
G40C U56A G62C	< 1e-05 s⁻¹	–	< 1e-05 s⁻¹	–	–
C10G C68A	< 1e-05 s⁻¹	–	–	–	–
A12C A33G U65C	< 1e-05 s⁻¹	–	–	–	–
A15U A36G	< 1e-05 s⁻¹	< 1e-05 s⁻¹	–	–	< 1e-05 s⁻¹

Variant	self-cleavage kobs at 40 uM GlcN6P (glucosamine-6-phosphate [1])	self-cleavage kobs at 640 uM GlcN6P (glucosamine-6-phosphate [2])	self-cleavage kobs at 2500 uM GlcN6P (glucosamine-6-phosphate [3])	self-cleavage kobs at 160 uM GlcN6P (glucosamine-6-phosphate [4])	self-cleavage kobs at 10000 uM GlcN6P (glucosamine-6-phosphate [5])
G32U A52C U55G C61U	< 1e-05 s⁻¹	–	–	–	< 1e-05 s⁻¹
A33C G41C U47C A53G U54C U65G C70U	< 1e-05 s⁻¹	–	–	–	< 1e-05 s⁻¹
A6U G59C C71G	< 1e-05 s⁻¹	< 1e-05 s⁻¹	< 1e-05 s⁻¹	< 1e-05 s⁻¹	< 1e-05 s⁻¹
U47A G62U	< 1e-05 s⁻¹	< 1e-05 s⁻¹	< 1e-05 s⁻¹	< 1e-05 s⁻¹	< 1e-05 s⁻¹
U54G U65G C67G	3.01e-05 ± 1.5e-05 s⁻¹	–	–	–	0.00213 ± 0.00029 s⁻¹
A14G G38A	< 1e-05 s⁻¹	–	–	–	–
G60U G63A C67U	< 1e-05 s⁻¹	–	–	–	–
U30C G43A U46A	< 1e-05 s⁻¹	–	–	–	–
G13A G62A	< 1e-05 s⁻¹	< 1e-05 s⁻¹	< 1e-05 s⁻¹	< 1e-05 s⁻¹	< 1e-05 s⁻¹
G40C G43C	< 1e-05 s⁻¹	–	< 1e-05 s⁻¹	< 1e-05 s⁻¹	< 1e-05 s⁻¹
A33C G40A C67G	< 1e-05 s⁻¹	–	–	–	–
G38C C58U	< 1e-05 s⁻¹	< 1e-05 s⁻¹	< 1e-05 s⁻¹	–	< 1e-05 s⁻¹
G32U C34G C68G	4.91e-05 ± 1.8e-05 s⁻¹	–	–	–	3.41e-05 ± 1.6e-05 s⁻¹
A6U C58U	< 1e-05 s⁻¹	< 1e-05 s⁻¹	< 1e-05 s⁻¹	< 1e-05 s⁻¹	< 1e-05 s⁻¹
G43U U47A	< 1e-05 s⁻¹	–	–	–	–
G9U G41U	< 1e-05 s⁻¹	< 1e-05 s⁻¹	< 1e-05 s⁻¹	< 1e-05 s⁻¹	< 1e-05 s⁻¹
A15C U30G	0.00258 ± 0.00062 s⁻¹	0.0305 ± 0.0089 s⁻¹	0.0288 ± 0.011 s⁻¹	0.00591 ± 0.0015 s⁻¹	0.153 ± 0.058 s⁻¹
G40A G43U	< 1e-05 s⁻¹	< 1e-05 s⁻¹	–	< 1e-05 s⁻¹	< 1e-05 s⁻¹
G9U A15U	< 1e-05 s⁻¹	< 1e-05 s⁻¹	–	< 1e-05 s⁻¹	–
G9C A33U A52C	< 1e-05 s⁻¹	–	–	–	–
C10A G59A	< 1e-05 s⁻¹	< 1e-05 s⁻¹	–	–	–
G32A C50A U55G C71G	< 1e-05 s⁻¹	–	–	–	–
G32A U54G G59A	< 1e-05 s⁻¹	–	–	–	–
C8G G32A G59U	< 1e-05 s⁻¹	–	< 1e-05 s⁻¹	–	< 1e-05 s⁻¹
